Measurements as given in patent US20170158755A1 (PROTHENA BIOSCIENCES, published 2017).

T1: LGde2, human LAMA4 G domain with LG2 deleted, displayed on 293 cells (human, UniProt Q16363 830-1821, limits assumed)
T1 construct: pDisplay construct on 293 cells; vector tags and anchor not written here; also called LGde2 (LG13)
T1 sequence: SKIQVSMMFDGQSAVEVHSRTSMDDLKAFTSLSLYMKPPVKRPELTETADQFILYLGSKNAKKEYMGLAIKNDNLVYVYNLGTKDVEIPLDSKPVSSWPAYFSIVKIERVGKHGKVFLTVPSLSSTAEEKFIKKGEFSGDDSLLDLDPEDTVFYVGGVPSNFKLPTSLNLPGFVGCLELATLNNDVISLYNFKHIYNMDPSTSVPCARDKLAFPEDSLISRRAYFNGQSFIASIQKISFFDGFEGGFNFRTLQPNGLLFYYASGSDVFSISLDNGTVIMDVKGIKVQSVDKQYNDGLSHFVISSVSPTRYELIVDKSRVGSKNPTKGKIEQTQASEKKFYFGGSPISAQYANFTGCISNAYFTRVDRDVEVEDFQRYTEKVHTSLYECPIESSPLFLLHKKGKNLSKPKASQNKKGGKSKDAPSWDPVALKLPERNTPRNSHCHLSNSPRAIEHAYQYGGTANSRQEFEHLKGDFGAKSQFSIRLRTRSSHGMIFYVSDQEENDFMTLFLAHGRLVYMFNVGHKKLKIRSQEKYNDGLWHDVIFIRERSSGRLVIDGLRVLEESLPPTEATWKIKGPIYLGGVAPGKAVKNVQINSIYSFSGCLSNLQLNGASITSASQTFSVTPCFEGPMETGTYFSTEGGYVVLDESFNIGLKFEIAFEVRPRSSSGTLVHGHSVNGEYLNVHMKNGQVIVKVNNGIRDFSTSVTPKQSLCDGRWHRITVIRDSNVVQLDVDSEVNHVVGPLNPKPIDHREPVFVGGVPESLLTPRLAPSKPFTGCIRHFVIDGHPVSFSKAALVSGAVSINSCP

T2: LGde3, human LAMA4 G domain with LG3 deleted, displayed on 293 cells (human, UniProt Q16363 830-1821, limits assumed)
T2 construct: pDisplay construct on 293 cells; vector tags and anchor not written here; also called LGde3 (LG12); LGde3 (LG23)
T2 sequence: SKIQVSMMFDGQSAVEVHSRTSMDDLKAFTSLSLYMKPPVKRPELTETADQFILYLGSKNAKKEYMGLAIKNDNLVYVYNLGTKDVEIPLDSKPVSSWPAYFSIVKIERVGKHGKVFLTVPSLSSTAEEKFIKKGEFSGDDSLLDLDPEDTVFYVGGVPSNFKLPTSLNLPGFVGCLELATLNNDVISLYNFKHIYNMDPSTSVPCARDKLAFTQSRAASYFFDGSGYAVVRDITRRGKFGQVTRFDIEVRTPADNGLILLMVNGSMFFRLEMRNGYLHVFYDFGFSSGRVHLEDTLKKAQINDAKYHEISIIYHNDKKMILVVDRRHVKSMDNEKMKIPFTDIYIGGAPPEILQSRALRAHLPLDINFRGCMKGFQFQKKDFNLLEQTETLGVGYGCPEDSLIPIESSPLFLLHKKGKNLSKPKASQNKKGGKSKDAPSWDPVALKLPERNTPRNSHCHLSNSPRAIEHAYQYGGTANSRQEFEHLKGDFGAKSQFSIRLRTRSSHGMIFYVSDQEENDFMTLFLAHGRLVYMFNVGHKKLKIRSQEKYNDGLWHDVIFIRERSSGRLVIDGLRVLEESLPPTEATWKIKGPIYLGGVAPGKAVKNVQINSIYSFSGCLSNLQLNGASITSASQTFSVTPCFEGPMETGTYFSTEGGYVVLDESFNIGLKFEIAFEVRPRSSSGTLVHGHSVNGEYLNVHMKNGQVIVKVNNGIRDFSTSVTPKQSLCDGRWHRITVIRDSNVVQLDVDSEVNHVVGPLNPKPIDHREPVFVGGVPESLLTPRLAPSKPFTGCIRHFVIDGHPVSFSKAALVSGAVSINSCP


Legend:
[1] = target: T1, LGde2, human LAMA4 G domain with LG2 …; test: flow cytometry on 293 cells displaying LAMA4 G-domain variants; % binding
Excerpt: (§1) LGde1 has a full-length G domain (i.e., LG1-5) with LG1 deleted, LGde2 has a full-length G domain with LG2 deleted, and LGde3 has a full-length G domain with LG3 deleted. Recombinant MCAM-Fc protein was able to specifically bind 293 cells expressing LAMA4 variants LG1-5, LG1-3, and LGde 1 (LG23), but not 293 cells expressing LAMA 4 variants LG4-5, LGde2 (LG13), or LGde3 (LG12).

[2] = target: T2, LGde3, human LAMA4 G domain with LG3 …; test: as above
Excerpt: as §1

recombinant laminin 411 = target: T3, recombinant laminin 411 (human, UniProt P07942 22-1786; P11047 34-1609, limits assumed); test: hMCAM.CHO flow cytometric blocking assay; antibody pre-incubated with laminin 411; blocked partner: human MCAM on CHO cells
T3 construct: also called LAMA4 in complex with its gamma1 and beta1 chains
T3 sequence (chain, as listed by the source limits assumed, chain 1 of 3): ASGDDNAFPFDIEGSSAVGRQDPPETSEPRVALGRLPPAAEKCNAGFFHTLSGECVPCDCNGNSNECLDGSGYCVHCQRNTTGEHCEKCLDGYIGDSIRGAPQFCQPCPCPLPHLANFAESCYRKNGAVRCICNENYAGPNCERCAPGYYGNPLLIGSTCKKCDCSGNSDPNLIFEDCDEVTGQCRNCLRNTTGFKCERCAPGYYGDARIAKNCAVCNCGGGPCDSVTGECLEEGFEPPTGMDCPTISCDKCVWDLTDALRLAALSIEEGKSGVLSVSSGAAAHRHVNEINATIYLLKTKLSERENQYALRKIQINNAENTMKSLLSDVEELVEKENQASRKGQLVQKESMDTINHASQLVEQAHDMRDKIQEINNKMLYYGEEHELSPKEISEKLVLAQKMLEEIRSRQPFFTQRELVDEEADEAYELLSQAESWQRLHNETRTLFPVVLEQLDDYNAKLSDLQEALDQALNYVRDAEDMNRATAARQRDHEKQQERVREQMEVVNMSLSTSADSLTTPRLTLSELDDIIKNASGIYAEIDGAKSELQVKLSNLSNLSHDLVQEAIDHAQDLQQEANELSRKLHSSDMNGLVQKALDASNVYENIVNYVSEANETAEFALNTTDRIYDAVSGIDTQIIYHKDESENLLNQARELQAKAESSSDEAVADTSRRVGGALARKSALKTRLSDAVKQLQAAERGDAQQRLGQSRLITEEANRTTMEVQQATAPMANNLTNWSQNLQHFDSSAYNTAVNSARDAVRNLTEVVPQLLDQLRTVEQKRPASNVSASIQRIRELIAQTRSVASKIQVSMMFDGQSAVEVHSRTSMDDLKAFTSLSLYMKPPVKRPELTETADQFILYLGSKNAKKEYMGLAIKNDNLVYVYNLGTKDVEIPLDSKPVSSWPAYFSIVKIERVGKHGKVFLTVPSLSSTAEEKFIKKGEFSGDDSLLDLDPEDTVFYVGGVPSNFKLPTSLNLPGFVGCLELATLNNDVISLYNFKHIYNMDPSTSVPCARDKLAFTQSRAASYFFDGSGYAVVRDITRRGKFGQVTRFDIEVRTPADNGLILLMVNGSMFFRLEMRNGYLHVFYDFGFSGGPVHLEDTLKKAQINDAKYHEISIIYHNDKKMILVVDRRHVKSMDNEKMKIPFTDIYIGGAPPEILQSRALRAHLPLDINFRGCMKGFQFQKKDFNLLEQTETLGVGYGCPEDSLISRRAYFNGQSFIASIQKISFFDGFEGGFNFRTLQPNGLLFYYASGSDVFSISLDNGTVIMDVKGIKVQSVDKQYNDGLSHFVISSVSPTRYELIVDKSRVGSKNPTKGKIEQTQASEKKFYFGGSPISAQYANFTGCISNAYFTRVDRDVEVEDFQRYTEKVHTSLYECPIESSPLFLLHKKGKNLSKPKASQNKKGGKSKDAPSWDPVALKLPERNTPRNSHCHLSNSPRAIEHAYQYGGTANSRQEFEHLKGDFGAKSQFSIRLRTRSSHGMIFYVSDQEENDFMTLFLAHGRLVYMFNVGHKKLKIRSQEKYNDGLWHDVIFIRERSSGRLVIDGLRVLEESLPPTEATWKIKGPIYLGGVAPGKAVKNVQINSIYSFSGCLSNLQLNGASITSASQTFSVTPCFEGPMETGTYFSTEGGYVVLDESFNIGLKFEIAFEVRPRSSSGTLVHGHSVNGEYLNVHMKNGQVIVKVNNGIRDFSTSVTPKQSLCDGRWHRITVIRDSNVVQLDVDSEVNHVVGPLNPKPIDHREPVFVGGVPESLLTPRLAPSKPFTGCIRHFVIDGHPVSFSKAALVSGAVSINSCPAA
T3 sequence (P07942 22-1786 limits assumed, chain 2 of 3): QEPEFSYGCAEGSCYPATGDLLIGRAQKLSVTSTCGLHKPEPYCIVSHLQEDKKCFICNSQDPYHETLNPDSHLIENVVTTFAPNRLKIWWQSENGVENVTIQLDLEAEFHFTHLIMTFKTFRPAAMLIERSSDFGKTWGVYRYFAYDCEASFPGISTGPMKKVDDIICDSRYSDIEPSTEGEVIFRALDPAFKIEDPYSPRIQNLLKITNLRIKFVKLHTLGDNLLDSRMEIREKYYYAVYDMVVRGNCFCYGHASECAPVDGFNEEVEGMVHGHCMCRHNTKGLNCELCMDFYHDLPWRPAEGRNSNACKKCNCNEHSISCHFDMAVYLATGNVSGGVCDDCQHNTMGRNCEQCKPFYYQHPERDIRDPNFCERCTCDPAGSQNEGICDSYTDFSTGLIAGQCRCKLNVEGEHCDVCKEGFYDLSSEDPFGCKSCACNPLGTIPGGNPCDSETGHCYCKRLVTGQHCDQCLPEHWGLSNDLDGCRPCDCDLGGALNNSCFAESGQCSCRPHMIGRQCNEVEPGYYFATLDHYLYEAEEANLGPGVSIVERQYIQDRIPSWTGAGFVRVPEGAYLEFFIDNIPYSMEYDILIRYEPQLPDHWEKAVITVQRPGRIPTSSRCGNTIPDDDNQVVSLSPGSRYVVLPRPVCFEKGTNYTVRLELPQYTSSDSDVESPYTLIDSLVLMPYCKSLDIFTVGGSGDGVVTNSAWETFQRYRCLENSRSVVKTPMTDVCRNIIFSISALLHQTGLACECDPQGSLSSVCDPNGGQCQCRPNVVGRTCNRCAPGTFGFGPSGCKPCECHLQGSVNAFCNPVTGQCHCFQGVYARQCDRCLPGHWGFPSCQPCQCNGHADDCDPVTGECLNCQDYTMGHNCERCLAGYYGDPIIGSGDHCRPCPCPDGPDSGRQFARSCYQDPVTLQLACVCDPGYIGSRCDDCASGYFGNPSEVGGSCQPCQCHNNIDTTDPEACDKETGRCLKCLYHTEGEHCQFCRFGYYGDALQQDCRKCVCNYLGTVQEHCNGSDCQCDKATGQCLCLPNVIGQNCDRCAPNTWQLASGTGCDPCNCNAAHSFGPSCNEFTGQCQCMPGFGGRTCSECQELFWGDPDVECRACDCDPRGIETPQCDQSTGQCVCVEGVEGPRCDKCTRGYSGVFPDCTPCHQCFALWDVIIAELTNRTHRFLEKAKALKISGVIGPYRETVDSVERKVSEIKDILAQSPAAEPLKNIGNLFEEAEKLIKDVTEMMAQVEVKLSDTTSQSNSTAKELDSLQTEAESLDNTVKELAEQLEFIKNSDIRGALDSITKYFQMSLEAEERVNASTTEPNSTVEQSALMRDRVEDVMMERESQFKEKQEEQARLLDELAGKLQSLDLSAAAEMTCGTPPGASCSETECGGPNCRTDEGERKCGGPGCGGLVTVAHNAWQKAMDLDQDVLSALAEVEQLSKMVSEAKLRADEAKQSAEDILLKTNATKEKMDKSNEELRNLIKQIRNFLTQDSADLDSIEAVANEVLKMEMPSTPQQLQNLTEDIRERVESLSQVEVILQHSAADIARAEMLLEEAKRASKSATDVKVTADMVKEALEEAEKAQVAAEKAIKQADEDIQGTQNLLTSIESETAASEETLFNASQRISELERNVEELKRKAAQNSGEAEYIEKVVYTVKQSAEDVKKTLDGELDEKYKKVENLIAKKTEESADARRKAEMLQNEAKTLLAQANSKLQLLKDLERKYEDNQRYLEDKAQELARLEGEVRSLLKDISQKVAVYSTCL
T3 sequence (P11047 34-1609 limits assumed, chain 3 of 3): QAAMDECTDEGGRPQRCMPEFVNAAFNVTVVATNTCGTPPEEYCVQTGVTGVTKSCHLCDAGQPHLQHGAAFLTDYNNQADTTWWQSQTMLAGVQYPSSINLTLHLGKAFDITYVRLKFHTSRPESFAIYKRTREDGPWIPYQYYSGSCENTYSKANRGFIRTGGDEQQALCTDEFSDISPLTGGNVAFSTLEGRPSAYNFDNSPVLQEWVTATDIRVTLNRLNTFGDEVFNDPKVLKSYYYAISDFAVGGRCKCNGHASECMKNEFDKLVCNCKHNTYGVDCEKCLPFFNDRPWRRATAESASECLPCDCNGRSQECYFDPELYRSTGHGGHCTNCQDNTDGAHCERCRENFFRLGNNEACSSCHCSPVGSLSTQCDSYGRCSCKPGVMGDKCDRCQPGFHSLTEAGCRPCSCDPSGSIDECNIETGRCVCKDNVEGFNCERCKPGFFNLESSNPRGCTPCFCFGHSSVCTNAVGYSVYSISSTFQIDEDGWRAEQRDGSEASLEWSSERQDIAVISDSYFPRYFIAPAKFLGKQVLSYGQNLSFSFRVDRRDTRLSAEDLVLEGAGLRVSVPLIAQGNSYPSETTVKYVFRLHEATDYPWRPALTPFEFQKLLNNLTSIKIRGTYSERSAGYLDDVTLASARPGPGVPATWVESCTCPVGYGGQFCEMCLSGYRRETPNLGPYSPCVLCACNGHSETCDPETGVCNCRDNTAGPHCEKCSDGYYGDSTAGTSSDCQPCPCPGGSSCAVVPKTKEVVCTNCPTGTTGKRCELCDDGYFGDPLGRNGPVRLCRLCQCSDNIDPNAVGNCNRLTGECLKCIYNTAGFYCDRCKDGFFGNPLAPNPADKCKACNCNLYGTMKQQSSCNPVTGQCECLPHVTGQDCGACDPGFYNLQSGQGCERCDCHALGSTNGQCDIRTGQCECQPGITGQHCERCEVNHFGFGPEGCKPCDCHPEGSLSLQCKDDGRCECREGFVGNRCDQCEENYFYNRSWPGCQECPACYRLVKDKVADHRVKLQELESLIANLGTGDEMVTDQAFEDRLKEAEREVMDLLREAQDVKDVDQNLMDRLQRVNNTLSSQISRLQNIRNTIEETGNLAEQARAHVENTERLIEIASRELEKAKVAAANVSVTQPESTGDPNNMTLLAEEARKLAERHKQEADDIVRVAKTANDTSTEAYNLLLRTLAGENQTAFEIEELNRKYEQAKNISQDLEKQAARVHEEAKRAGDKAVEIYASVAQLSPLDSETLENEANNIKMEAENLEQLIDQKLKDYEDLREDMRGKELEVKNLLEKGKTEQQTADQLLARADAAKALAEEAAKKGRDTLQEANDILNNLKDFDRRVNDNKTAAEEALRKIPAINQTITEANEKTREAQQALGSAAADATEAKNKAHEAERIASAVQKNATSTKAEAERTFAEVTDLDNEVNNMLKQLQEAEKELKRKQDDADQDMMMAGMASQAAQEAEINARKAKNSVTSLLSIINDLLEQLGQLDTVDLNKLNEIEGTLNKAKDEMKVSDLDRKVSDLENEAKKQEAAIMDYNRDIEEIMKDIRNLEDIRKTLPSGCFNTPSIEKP
Description: The monoclonal antibodies against LAMA4 were tested for their ability to block the binding of LAMA4 to its ligand MCAM. IgG control antibody, 1C1, 5Al2, 5B5, 19C12, and 12D3 were pre-incubated with recombinant LAMA4 protein, LAMA4-positive healthy mouse brain tissue, or LAMA4-displaying human 293 cells. […] For the mouse brain tissue blocking assay, antibodies were used at concentrations of 2.5 ug/ml or 0.04 ug/ml.
Following two washes with FACS buffer (1% FBS in PBS), cells were resuspended with 650-conjugated anti-pan-laminin antibody (1:1000; Novus Biologicals) and incubated for 20 min at 4° C., and washed again. Cells were analyzed for pan-laminin reactivity by flow cytometry using standard procedures.

Binder	binding result [1]	binding result [2]	IC50 (read off the curve) (recombinant laminin 411) [µg/mL]
mouse monoclonal antibody 19C12 (antibody, V domains shown, Mouse hybridoma antibody; Mouse IgG2b was used as its isotype control; also called m19C12) VH: QVQLQQSGAELVKPGASVKISCKASGYAFSTYWMNWVKQRPGEGLEWIGQIYPGDGDTNYNGKFKGKATLTADKSSSTAYMQLSSLTSEDSAVYFCARSDGYYDYWGQGTTLTVSS VL: NIVLTQSPASLAVSLGQRATISCRASESVDSYGTSFMHWYQQKPGQPPKLLICLASSLESGVPARFSGSGSRTDFTLTIDPVEADDAATYYCQQNNEDPPTFGAGTKLELKR	no binding	no binding	~0.03
mouse monoclonal antibody 1C1 (antibody, V domains shown, version 1 is written here) VH: QVQLQQSGAELARPGASVKLSCKASGYTFTNYGISWVKQRTGQGLEWIGAIYPRSGNTYYNEKFKGKATLTADKSSSTAYMELRSLTSEDSAVYFCARERDYGSSYALDYWGQGTSVTVSS VL: DIVMTQSQKFMSTSVGDRVSVTCKASHNVGTNVAWYQQKPGQSPKPLIYSASYRYSGVPDRFTGSGSGTDFTLTISNVQSEDLADYFCQQFNNYPYTFGGGTKLEIKR	no binding	no binding	
